Columns and labels:
[1] = tested on: human neurons cocultured with mouse glia; experiment: Aβ42 fractionation experiment, MTT assay of supernatant and pellet; format: cell-based; conditions: fractions of Aβ42 preaggregated at 37°C for 24 hours, 20,000g 15 minutes; 0.2 μM chronic, DIV45
Protocol: Aggregation mixtures were centrifuged at 20,000g for 15 minutes at 4°C. The supernatant (enriched in monomer, small oligomers and residual larger species) was removed without disturbing the pellet. The pellet (large aggregates and high-molecular-weight oligomers) was resuspended in DMSO to the original volume. Supernatant and the resuspended pellet were administered to neurons, independently, at the concentration of 0.2 μM following the same protocol of administration used in this study (Figure 1A) and described above.

human neurons = experiment: NLS-TdTomato cytotoxicity assay (cytoplasmic leakage of NLS-TdTomato); conditions: 5% DMSO or 200 μM hydrogen peroxide, each applied for 4 hours, DIV30
Protocol: The MTT assay employs yellow tetrazolium dye that is reduced to a purple formazan crystal by viable cells with active metabolism ([21]). Because it measures metabolic activity in all cells, this assay serves as a broad cytotoxicity read out for the entire glia/neuron coculture system. The amount of formazan produced is then measured because it is directly proportional to the number of viable cells ([21]) (Figure 1B and Supplemental Figure 1A). The nuclear localization TdTomato assay, conversely, enables monitoring of cellular stress by tracking the localization of fluorescent TdTomato fused to a nuclear localization signal. Under healthy conditions, the nuclear localization signal directs the NLS-TdTomato to the nucleus. When toxicity in a cell causes a reduction in ATP levels, NLS-TdTomato leaks out of the nucleus into the cytoplasm, which we scored as an index of toxicity (Figure 1, C and D, and Supplemental Figure 1, B–D). Because the reporter is expressed only in neurons, this assay specifically assesses neurotoxicity within the coculture. We developed this assay because it can be performed on live cells and reflects decreases in ATP levels in these cells. […]
To assess neuronal cytotoxicity induced by Aβ peptides, we employed a novel Td-Tomato cytotoxicity assay that we developed. […] Neurons displaying cytoplasmic Td-Tomato were counted as indicators of cytotoxicity. […]

Row | Molecule | Loss of viability, MTT assay (in words) [1] | Validation of the NLS-TdTomato assay: nuclear-to-cytoplasmic shift of NLS-TdTomato (in words) (human neurons)
1 | pellet: pellet of centrifuged preaggregated Aβ42, large aggregates and high-molecular-weight oligomers, resuspended in DMSO | same loss of viability | 
2 | OO [hydrogen peroxide] |  | rapidly induced the nuclear-to-cytoplasmic shift of NLS-TdTomato
3 | supernatant: supernatant of centrifuged preaggregated Aβ42, enriched in monomer, small oligomers and residual larger species | same loss of viability | 

Source: publication PMC12700558, “Aggregation shifts amyloid-β peptides from synaptogenic to synaptotoxic” (The Journal of Clinical Investigation, 2025)
